Data taken from patent US20210403593A1 (TIZONA THERAPEUTICS, published 2021).

T1: human CD39 (cellular) (human, UniProt P49961 1-510)
T1 construct: Same protein on engineered CHO cells and on cells that express it endogenously; also called hCD39; cellular CD39
T1 sequence: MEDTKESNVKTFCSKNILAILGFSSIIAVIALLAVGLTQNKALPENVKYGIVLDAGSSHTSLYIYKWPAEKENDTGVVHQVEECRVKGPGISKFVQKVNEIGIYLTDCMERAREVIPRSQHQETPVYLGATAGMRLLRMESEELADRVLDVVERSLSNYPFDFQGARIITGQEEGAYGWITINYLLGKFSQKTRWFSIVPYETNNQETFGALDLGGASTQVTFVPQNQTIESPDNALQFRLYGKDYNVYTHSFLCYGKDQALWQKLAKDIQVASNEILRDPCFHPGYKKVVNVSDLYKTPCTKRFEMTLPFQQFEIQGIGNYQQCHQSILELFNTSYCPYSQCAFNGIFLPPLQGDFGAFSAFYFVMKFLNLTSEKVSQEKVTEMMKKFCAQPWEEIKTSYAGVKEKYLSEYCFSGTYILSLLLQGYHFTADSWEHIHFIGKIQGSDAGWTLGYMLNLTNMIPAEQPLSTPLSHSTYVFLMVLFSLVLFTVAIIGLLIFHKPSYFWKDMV

T2: cynomolgus macaque (Macaca fascicularis) CD39 (Macaca fascicularis, UniProt P49961 7-510 (human entry))
T2 construct: On engineered CHO cells and on primary cyno B cells and monocytes; also called cyno CD39; cCD39
T2 chain: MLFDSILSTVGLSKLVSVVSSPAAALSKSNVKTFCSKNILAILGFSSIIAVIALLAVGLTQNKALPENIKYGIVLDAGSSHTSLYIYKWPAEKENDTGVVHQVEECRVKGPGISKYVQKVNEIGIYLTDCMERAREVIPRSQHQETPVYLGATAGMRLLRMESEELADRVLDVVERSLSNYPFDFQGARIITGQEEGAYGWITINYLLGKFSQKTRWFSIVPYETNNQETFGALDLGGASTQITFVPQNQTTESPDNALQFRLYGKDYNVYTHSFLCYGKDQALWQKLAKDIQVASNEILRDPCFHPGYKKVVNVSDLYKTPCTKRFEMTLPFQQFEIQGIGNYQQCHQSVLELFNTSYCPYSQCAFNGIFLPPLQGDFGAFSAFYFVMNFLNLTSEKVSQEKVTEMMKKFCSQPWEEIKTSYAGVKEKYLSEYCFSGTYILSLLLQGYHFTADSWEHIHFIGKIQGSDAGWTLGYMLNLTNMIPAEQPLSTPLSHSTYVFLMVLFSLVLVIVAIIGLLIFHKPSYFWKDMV

B1: 27588 (antibody, V domains shown)
VH: QVQLVQSGAEVKKPGSSVKVSCKASGGTFSNYAISWVRQAPGQGLEWMGGIIPIFGTANYAQKFQGRVTITADESTSTAYMELSSLRSEDTAVYYCARAKRGYDSYGGVYFDYWGQGTLVTVSS
VL: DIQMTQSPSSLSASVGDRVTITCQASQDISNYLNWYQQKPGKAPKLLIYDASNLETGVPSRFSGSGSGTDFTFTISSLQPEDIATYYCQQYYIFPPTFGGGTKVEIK
B2: 27535 (antibody, human IgG4 S228P, kappa, V domains shown)
VH: QVQLVQSGAEVKKPGSSVKVSCKASGGTFSSYAISWVRQAPGQGLEWMGGIIPIFGTANYAQKFQGRVTITADESTSTAYMELSSLRSEDTAVYYCARDTPRWRYHYFDYWGQGTLVTVSS
VL: EIVLTQSPATLSLSPGERATLSCRASQSVSSYLAWYQQKPGQAPRLLIYDASKRATGIPARFSGSGSGTDFTLTISSLEPEDFAVYYCQQVLNYPLTFGGGTKVEIKR
B3: 27568 (antibody, human IgG4 S228P, kappa, V domains shown)
VH: QVQLVQSGAEVKKPGSSVKVPCKASGGTFSSYAISWVRQAPEQGLEWMGSIIPIFGTANYAQKFQGRVTITADESTSTAYMELSSLRSEDTAVYYCAGESGGYRDHKLDVWGQGTVVTVSS
VL: EIVLTQSPATLSLSPGERATLSCRASQSVSSYLAWYQQKPGQAPRLLIYDASNRATGIPARFSGSGSGTDFTLTISSLEPEDFAVYYCQQSVFWPITFGGGTKVEIKR
B4: 27587 (antibody, human IgG4 S228P, kappa, V domains shown)
VH: QVQLVQSGAEVKKPGSSVKVSCKASGGTFSSYAISWVRQAPGQGLEWMGSIIPIFGTANYAQKFQGRVTITADESTSTAYMELSSLRSEDTAVYYCARESGGYRDHKLDVWGQGTMVTVSS
VL: EIVLTQSPATLSLSPGERATLSCRASQSVSSYLAWYQQKPGQAPRLLIYDASKRATGIPARFSGSGSGTDFTLTISSLEPEDFAVYYCQQDVLWPLTFGGGTKVEIKR
B5: 27549 (antibody, human IgG4 S228P, kappa, V domains shown)
VH: QVQLVESGGGVVQPGRSLRLSCAASGFTFSSYGMNWVRQAPGKGLEWVAVIWYDGSNKYYADSVKGRFTISRDNSKNTLYLQMNSLRAEDTAVYYCARDLGGYSYGEPYYYYYGMDVWGQGTTVTVSS
VL: EIVLTQSPGTLSLSPGERATLSCRASQSVSSDYLAWYQQKPGQAPRLLIYGASSRATGIPDRFSGSGSGTDFTLTISRLEPEDFAVYYCQQAHSSPYTFGGGTKVEIKR
B6: 27536 (antibody, V domains shown)
VH: QVQLVQSGAEVKKPGSSVKVSCKASGGTFSNYAISWVRQAPGQGLEWMGGIIPIFGTANYAQKFQGRVTITADESTSTAYMELSSLRSEDTAVYYCARDTLYSSGAYYGYNVWGQGTMVTVSS
VL: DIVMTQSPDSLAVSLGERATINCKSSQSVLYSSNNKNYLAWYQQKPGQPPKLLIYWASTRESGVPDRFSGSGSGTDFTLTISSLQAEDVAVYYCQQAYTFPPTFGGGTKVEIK
B7: 27550 (antibody, human IgG4 S228P, kappa, V domains shown)
VH: EVQLVESGGGLVKPGGSLRLSCAASGFTFSSYSMNWVRQAPGKGLEWVSSISSSSSYIYYADSVKGRFTISRDNAKNSLYLQMNSLRAEDTAVYYCARERRGSLALGMDVWGQGTLVTVSS
VL: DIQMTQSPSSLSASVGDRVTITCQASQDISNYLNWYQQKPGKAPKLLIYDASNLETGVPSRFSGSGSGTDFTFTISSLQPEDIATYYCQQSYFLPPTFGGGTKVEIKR
B8: 27590 (antibody, V domains shown)
VH: QVQLVQSGAEVKKPGSSVKVSCKASGGTFSNYAISWVRQAPGQGLEWMGGIIPIFGTANYAQKFQGRVTITADESTSTAYMELSSLRSEDTAVYYCARGPTVTATTSIGTHNWFDPWGQGTLVTVSS
VL: EIVLTQSPATLSLSPGERATLSCRASQSVSSYLAWYQQKPGQAPRLLIYDASNRATGIPARFSGSGSGTDFTLTISSLEPEDFAVYYCQQRNFYPPTFGGGTKVEIK
B9: 27571 (antibody, V domains shown)
VH: QVQLVQSGAEVKKPGSSVKASCKASGGTFSSYAISWVRQAPGQGLEWMGSIIPIFGTANYAQKFRGRVTITADESTSTTYMELSSLRSEDTAVYYCARESGGYRDHRLDVWGQGTMVTVSS
VL: EIVMTQSPATLSVSPGERATLSCRASQSVGSNLAWYQQKPGQAPRLLIYGASTRATGIPARFSGSGSGTEFTLTISSLQSEDFAVYYCQQYLIWPLTFGGGTKVEIK
B10: 27577 (antibody, human IgG4 S228P, kappa, V domains shown)
VH: QVQLVQSGAEVKKPGSSVKVSCKASGGAFSSYAIGWVRQAPGQGLEWMGGIIPTFGTANYAQKFQGRVTITADESTSTAYMELSSLRSEDTAVYYCARDGGGYQHHYFDLWGRGTLVTVSS
VL: EIVMTQSPATLSVSPGERATLSCRASQSVGSNLAWYQQKPGQAPRLLIYGASTRATGIPARFSGSGSGTEFTLTISSLQSEDFAVYYCQQLTKWPLTFGGGTKVEIKR
B11: 27589 (antibody, human IgG4 S228P, kappa, V domains shown)
VH: QVQLVQSGAEVKKPGSSVKVSCKASGGTFSSYAISWVRQAPGQGLEWMGGIIPIFGTANYAQKFQGRVTITADESTSTAYMELSSLRSEDTAVYYCARDSGYHRHYSDYWGQGTLVTVSS
VL: DIQMTQSPSTLSASVGDRVTITCRASQSISSWLAWYQQKPGKAPKLLIYKASSLESGVPSRFSGSGSGTEFTLTISSLQPDDFATYYCQQYGLFPITFGGGTKVEIKR
B12: 27579 (antibody, V domains shown)
VH: QVQLVQSGAEVKEPGASVKVSCKAPGYTFTSYYMHWVRQAPGQGLEWMGVINPSGGSTSYAQKFQGRVTMTRDTSTSTVYMELSSLRSEDTAVYYCARGKREGGTEYLRHWGQGTLVTVSS
VL: EIVLTQSPGTLSLSPGERATLSCRASQSVSSSYLAWYQQKPGQAPRLLIYGASSRATGIPDRFSGSGSGTDFTLTISRLEPEDFAVYYCQQYHSYITFGGGTKVEIK
B13: 31431 (antibody, V domains shown)
VH: QVQLVQSGAEVKKPGASVKVSCKASGYTFTSYQMHWVRQAPGQGLEWMGRINPSGGSTWYAQKFQGRVTMTRDTSTSTVYMELSSLRSEDTAVYYCARGKREGGTEYLRHWGQGTLVTVSS
VL: EIVLTQSPGTLSLSPGERATLSCRASQSVASSYLAWYQQKPGQAPRLLIYGASNRHTGIPDRFSGSGSGTDFTLTISRLEPEDFAVYYCQQYHGGITFGGGTKVEIK
B14: 31429 (antibody, V domains shown)
VH: QVQLVQSGAEVKKPGASVKVSCKASGYTFVSYFMHWVRQAPGQGLEWMGSINPRGGSTSYAQKFQGRVTMTRDTSTSTVYMELSSLRSEDTAVYYCARGKREGGTEYLRHWGQGTLVTVSS
VL: EIVLTQSPGTLSLSPGERATLSCRASQYVSSSYLAWYQQKPGQAPRLLIYYASNRATGIPDRFSGSGSGTDFTLTISRLEPEDFAVYYCQQYHSGITFGGGTKVEIK
B15: 29872 (antibody, V domains shown)
VH: QVQLVQSGAEVKKPGASVKVSCKASGYTFKSYEMHWVRQAPGQGLEWMGRINPSVGSTWYAQKFQGRVTMTRDTSTSTVYMELSSLRSEDTAVYYCARGKREGGTEYLRHWGQGTLVTVSS
VL: EIVLTQSPGTLSLSPGERATLSCRASQSVSSSYLAWYQQKPGQAPRLLIYGASSRATGIPDRFSGSGSGTDFTLTISRLEPEDFAVYYCQQYHSYITFGGGTKVEIK
notes: also called anti-CD39 antibody 29872
B16: 31421 (antibody, V domains shown)
VH: QVQLVQSGAEVKKPGASVKVSCKASGYTFFSYYMYWVRQAPGQGLEWMGVINPLGGGTSYAQKFQGRVTMTRDTSTSTVYMELSSLRSEDTAVYYCARGKREGGTEYLRHWGQGTLVTVSS
VL: EIVLTQSPGTLSLSPGERATLSCKASESVSSSYLAWYQQKPGQAPRLLIYYASSRATGIPDRFSGSGSGTDFTLTISRLEPEDFAVYYCQQYHRRITFGGGTKVEIK

Assays:
human CD39 (cellular) = molecular target: T1, human CD39 (cellular); experiment: flow cytometry, 100 nM IgG, MFI on CHO-hCD39 / MFI on parental CHO;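 note: cells exposed to IgG for 30 min on ice in PBS, bound antibody then revealed with a fluorescent goat anti-human IgG secondary (20 min, on ice)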
Description: 100 nanomolar IgGs (each antibody is indicated as a unique clone number in the FIG.) were incubated at 25° C. for 30 minutes on ice in phosphate buffered saline (PBS) with parental CHO cells or CHO cells engineered to express either human or cynomolgus macaque (Macaca fascicularis) CD39 (CHO CD39 cells). Cells were then washed with ice cold PBS and incubated with a fluorescently labeled goat-anti-human IgG for 20 minutes on ice. Cells were washed and resuspended in ice cold PBS prior to analysis by flow cytometry.

[1] = molecular target: T2, cynomolgus macaque (Macaca …); experiment: flow cytometry, 100 nM IgG, MFI on CHO-cCD39 / MFI on parental CHO;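 note: antibodies bound to the cells for 30 min in PBS, then bound IgG was revealed with a fluorescent goat anti-human IgG secondary antibody, 20 min on ice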

Binder	Cell Binding (FOB) (human CD39 (cellular)) [fold over background]	Cell Binding (FOB) [1] [fold over background]
B1	10	14
B2	301	738
B3	267	260
B4	1450	1400
B5	822	566
B6	89	113
B7	2030	2870
B8	33	44
B9	1400	1610
B10	390	339
B11	311	531
B12	1950	2670
B13	1240	3530
B14	1290	3800
B15	1450	4190
B16	1080	3050
